Article PMC12105186 (Cell Communication and Signaling : CCS, 2025)
Several values for one entry are separate records, joined by “and”; a condition that tells them apart may be missing. Equal entries are not always repeated.

B1: deletion mutant of human RXRγ lacking the AB region (ΔABhRXRγ) (domain or fragment, UniProt P48443 128-463, looked up)
chain: STSPGSLVKHICAICGDRSSGKHYGVYSCEGCKGFFKRTIRKDLIYTCRDNKDCLIDKRQRNRCQYCRYQKCLVMGMKREAVQEERQRSRERAESEAECATSGHEDMPVERILEAELAVEPKTESYGDMNMENSTNDPVTNICHAADKQLFTLVEWAKRIPHFSDLTLEDQVILLRAGWNELLIASFSHRSVSVQDGILLATGLHVHRSSAHSAGVGSIFDRVLTELVSKMKDMQMDKSELGCLRAIVLFNPDAKGLSNPSEVETLREKVYATLEAYTKQKYPEQPGRFAKLLLRLPALRSIGLKCLEHLFFFKLIGDTPIDTFLMEMLETPLQIT
B2: full-length human retinoid X receptor γ (hRXRγ) (receptor, UniProt P48443 1-463, looked up)
chain: MYGNYSHFMKFPAGYGGSPGHTGSTSMSPSAALSTGKPMDSHPSYTDTPVSAPRTLSAVGTPLNALGSPYRVITSAMGPPSGALAAPPGINLVAPPSSQLNVVNSVSSSEDIKPLPGLPGIGNMNYPSTSPGSLVKHICAICGDRSSGKHYGVYSCEGCKGFFKRTIRKDLIYTCRDNKDCLIDKRQRNRCQYCRYQKCLVMGMKREAVQEERQRSRERAESEAECATSGHEDMPVERILEAELAVEPKTESYGDMNMENSTNDPVTNICHAADKQLFTLVEWAKRIPHFSDLTLEDQVILLRAGWNELLIASFSHRSVSVQDGILLATGLHVHRSSAHSAGVGSIFDRVLTELVSKMKDMQMDKSELGCLRAIVLFNPDAKGLSNPSEVETLREKVYATLEAYTKQKYPEQPGRFAKLLLRLPALRSIGLKCLEHLFFFKLIGDTPIDTFLMEMLETPLQIT

How the values were obtained:
[1] = biological target: N-terminally 6×His-tagged AB region of hRXRγ (human); test: MST
SEC-MALS = biological target: the molecule itself; test: SEC-MALS
AUC = biological target: the molecule itself; test: AUC

| Molecule | Kd [1] | stoichiometry N (SEC-MALS) | stoichiometry N (AUC) |
| --- | --- | --- | --- |
| deletion mutant of human RXRγ lacking the AB region (ΔABhRXRγ) (from UniProt P48443 128-463) (domain or fragment) | 11.1 µM | – | – |
| B1 | – | 4 | 2 and 6 |
| B2 | – | – | 5 |
